According to the supplement of paper PMC9112550, “Optimization of the antimicrobial peptide Bac7 by deep mutational scanning” (BMC Biology, 2022):

System: Escherichia coli TOP10
Experiment: shrunken log2 fold change of peptide-encoding DNA abundance (4.5 h post-induction vs induction); higher = less antimicrobial activity (less host growth inhibition)
Settings: time post-induction: 4.5 h; library: site-saturation at positions 5, 18, 19, 20
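Note: peptides expressed intracellularly from a pBAD plasmid library in pooled LB shake-flask culture, induced with 0.3% L-arabinose, DNA abundance read by NGS, three biological replicates, DESeq2 with apeglm shrinkage.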

Row | Sequence | shrunken log2 fold change
1 | RRIRARPPRLPRPRPRPHWAPRP | -0.0191
2 | RRIRQRPPRLPRPRPRPMHKPRP | 0.0742
3 | RRIRRRPPRLPRPRPRPQVKPRP | 0.132
4 | RRIRMRPPRLPRPRPRPHRWPRP | 0.478
5 | RRIRPRPPRLPRPRPRPNRLPRP | -0.0308
6 | RRIRRRPPRLPRPRPRPCEWPRP | -0.0585
7 | RRIRHRPPRLPRPRPRPIDKPRP | 0.0156
8 | RRIRWRPPRLPRPRPRPRKHPRP | 0.15
9 | RRIRDRPPRLPRPRPRPVRDPRP | 0.203
10 | RRIRWRPPRLPRPRPRPTWPPRP | 0.466
11 | RRIRKRPPRLPRPRPRPWINPRP | -0.0449
12 | RRIRFRPPRLPRPRPRPTAYPRP | -0.243
13 | RRIRTRPPRLPRPRPRPTVCPRP | -0.509
14 | RRIRKRPPRLPRPRPRPTDGPRP | 0.396
15 | RRIRDRPPRLPRPRPRPLWAPRP | 0.0876
16 | RRIRSRPPRLPRPRPRPYSWPRP | -0.244
17 | RRIRERPPRLPRPRPRPKYNPRP | -0.7
18 | RRIRGRPPRLPRPRPRPRFVPRP | 0.467
19 | RRIRARPPRLPRPRPRPRDNPRP | 0.295
20 | RRIRGRPPRLPRPRPRPHGFPRP | 0.422
21 | RRIRLRPPRLPRPRPRPDNKPRP | -0.357
22 | RRIRTRPPRLPRPRPRPMKLPRP | -0.192

Row | Sequence | shrunken log2 fold change
23 | RRIRYRPPRLPRPRPRPWEYPRP | -0.142
24 | RRIRCRPPRLPRPRPRPKISPRP | -0.712
25 | RRIRCRPPRLPRPRPRPKYNPRP | -0.696
26 | RRIRFRPPRLPRPRPRPIPPPRP | 1.09
27 | RRIRIRPPRLPRPRPRPYDFPRP | 0.126
28 | RRIRMRPPRLPRPRPRPVCPPRP | 0.0129
29 | RRIRMRPPRLPRPRPRPFRYPRP | 0.0191
30 | RRIRQRPPRLPRPRPRPSKIPRP | -0.143
31 | RRIRCRPPRLPRPRPRPGSVPRP | 0.102
32 | RRIRKRPPRLPRPRPRPEACPRP | 0.0762
33 | RRIRGRPPRLPRPRPRPYQRPRP | 0.189
34 | RRIRGRPPRLPRPRPRPETHPRP | 2.22
35 | RRIRMRPPRLPRPRPRPSVYPRP | -0.335
36 | RRIRLRPPRLPRPRPRPTLSPRP | -0.0659
37 | RRIRCRPPRLPRPRPRPPESPRP | 0.347
38 | RRIRYRPPRLPRPRPRPAMSPRP | -0.0191
39 | RRIRGRPPRLPRPRPRPPITPRP | 0.0357
40 | RRIRARPPRLPRPRPRPAYQPRP | 0.106
41 | RRIRIRPPRLPRPRPRPLINPRP | -0.444
42 | RRIRKRPPRLPRPRPRPVKDPRP | 0.0491
43 | RRIRLRPPRLPRPRPRPPFVPRP | 0.00109
44 | RRIRERPPRLPRPRPRPNIEPRP | -0.136

Row | Sequence | shrunken log2 fold change
45 | RRIRYRPPRLPRPRPRPDKRPRP | -0.168
46 | RRIRSRPPRLPRPRPRPLTKPRP | -0.175
47 | RRIRARPPRLPRPRPRPTRIPRP | 2.82
48 | RRIRFRPPRLPRPRPRPYCHPRP | -0.687
49 | RRIRGRPPRLPRPRPRPILFPRP | 0.257
50 | RRIRARPPRLPRPRPRPFQSPRP | 0.105
51 | RRIRIRPPRLPRPRPRPPFFPRP | 0.41
52 | RRIRTRPPRLPRPRPRPVRAPRP | 0.514
53 | RRIRMRPPRLPRPRPRPKGKPRP | 0.288
54 | RRIRARPPRLPRPRPRPHMTPRP | -0.0862
55 | RRIRHRPPRLPRPRPRPETTPRP | 0.194
56 | RRIRSRPPRLPRPRPRPGRYPRP | -0.344
57 | RRIRDRPPRLPRPRPRPGLAPRP | 0.565
58 | RRIRWRPPRLPRPRPRPHPTPRP | 0.115
59 | RRIRERPPRLPRPRPRPVYMPRP | -0.481
60 | RRIRMRPPRLPRPRPRPCCGPRP | 0.215
61 | RRIRMRPPRLPRPRPRPDKNPRP | 0.373
62 | RRIRMRPPRLPRPRPRPTNHPRP | 0.0232
63 | RRIRHRPPRLPRPRPRPEYKPRP | -0.467
64 | RRIRYRPPRLPRPRPRPKPRPRP | 0.515
65 | RRIRARPPRLPRPRPRPQPKPRP | 0.465
66 | RRIRMRPPRLPRPRPRPDGQPRP | 1.15

Row | Sequence | shrunken log2 fold change
67 | RRIRIRPPRLPRPRPRPMCDPRP | -0.356
68 | RRIRTRPPRLPRPRPRPPRNPRP | 1.27
69 | RRIRGRPPRLPRPRPRPNWNPRP | -0.00809
70 | RRIRHRPPRLPRPRPRPVFNPRP | -0.532
71 | RRIRPRPPRLPRPRPRPAFNPRP | -0.0727
72 | RRIRTRPPRLPRPRPRPILGPRP | 0.0438
73 | RRIRWRPPRLPRPRPRPYDAPRP | -0.189
74 | RRIRRRPPRLPRPRPRPSSFPRP | -0.0626
75 | RRIRKRPPRLPRPRPRPPLNPRP | 0.309
76 | RRIRRRPPRLPRPRPRPKWKPRP | -0.0205
77 | RRIRWRPPRLPRPRPRPACMPRP | 0.164
78 | RRIRQRPPRLPRPRPRPAEDPRP | 0.0312
79 | RRIRYRPPRLPRPRPRPWFCPRP | -0.0679
80 | RRIRNRPPRLPRPRPRPNVLPRP | -0.178
81 | RRIRHRPPRLPRPRPRPGETPRP | -0.00149
82 | RRIRPRPPRLPRPRPRPKSHPRP | -0.246
83 | RRIRFRPPRLPRPRPRPNFWPRP | 0.15
84 | RRIRTRPPRLPRPRPRPLILPRP | -0.839
85 | RRIRYRPPRLPRPRPRPHNDPRP | -0.692
86 | RRIRLRPPRLPRPRPRPHQFPRP | 0.0562
87 | RRIRARPPRLPRPRPRPRDDPRP | 0.647
88 | RRIRIRPPRLPRPRPRPFWPPRP | -0.056

Row | Sequence | shrunken log2 fold change
89 | RRIRSRPPRLPRPRPRPKVQPRP | 0.293
90 | RRIRFRPPRLPRPRPRPMWIPRP | -0.106
91 | RRIRHRPPRLPRPRPRPQQRPRP | 0.403
92 | RRIRNRPPRLPRPRPRPDLAPRP | 0.02
93 | RRIRYRPPRLPRPRPRPVVVPRP | 0.00571
94 | RRIRPRPPRLPRPRPRPKSYPRP | -0.0208
95 | RRIRVRPPRLPRPRPRPVHQPRP | 0.241
96 | RRIRFRPPRLPRPRPRPTQQPRP | 0.312
97 | RRIRIRPPRLPRPRPRPEGIPRP | -0.0831
98 | RRIRVRPPRLPRPRPRPHYYPRP | 0.0781
99 | RRIRNRPPRLPRPRPRPRCSPRP | 0.019
100 | RRIRNRPPRLPRPRPRPSYRPRP | -0.102
101 | RRIRDRPPRLPRPRPRPGYKPRP | -0.121
102 | RRIRLRPPRLPRPRPRPSMRPRP | 0.421
103 | RRIRARPPRLPRPRPRPHDCPRP | -0.16
104 | RRIRIRPPRLPRPRPRPIDGPRP | -0.248
105 | RRIRNRPPRLPRPRPRPMYYPRP | 0.0222
106 | RRIRRRPPRLPRPRPRPNMNPRP | -0.463
107 | RRIRERPPRLPRPRPRPTVGPRP | -0.116
108 | RRIRFRPPRLPRPRPRPWEQPRP | -0.00193
109 | RRIRTRPPRLPRPRPRPQLVPRP | 0.0727
